This is an account of results in PMC8406324.

For the assay, the target named is HTNV Gn as incorporated in virus-like particles (Hantaan virus (HTNV)). Description: cryo-EM structure.

By stoichiometry N is commonly meant the number of molecules, sites or subunits per partner or assembly.

“HTNV Gn as incorporated in virus-like particles (natural protein)” came in with a stoichiometry N of 4.
